The supplement of paper PMC9170038

System: MS2 coat protein
Test: apparent KD of MS2 coat protein; designed switch direction (-1 OFF switch, 1 ON switch): 1; higher = weaker reporter binding
Procedure, shortened: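 An oligonucleotide input, 200 uM small-molecule ligand, or no input was present during titration of SNAP-549-labelled MS2 coat protein, which was doubled from 0.7 or 1.5 nM to 3 µM. Designed RNA switches had been transcribed on Illumina chips by stalled E. coli RNA polymerase. Apparent KD per design is the median over clusters of curves fitted to normalised cluster fluorescence.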

[1] = input ligand: microRNA oligo, concentration not stated
[2] = Eterna round: R95, input ligand: FMN 200 uM
[3] = Eterna round: R95, input ligand: microRNA oligo, concentration not stated
[4] = Eterna round: R95, input ligand: none

GUAGCAUACCGAGGAUAUUCAUAACCGAAAGGAACAUGAGGAUCACCCAUGUGGCGAAAGCCUUGGGAGAAGGCGGAAUGCUAC [Xeonanis - 20 Mod74] (Eterna round: R96, puzzle: Same State NG 2)
apparent KD of MS2 coat protein (input ligand: FMN 200 uM): 42.8 nM | apparent KD of MS2 coat protein [1]: 291 nM | apparent KD of MS2 coat protein (input ligand: none): 957 nM

GUAGCAUACCGAGGAUAUUCAUACAUGAGGAUCACCCAUGUUAAUAGGCCACAUUAGUGGCCUUGGGAGAAGGCGGAAUGCUAC [Xeonanis - 20 Mod46] (Eterna round: R96, puzzle: Same State NG 2)
apparent KD of MS2 coat protein (input ligand: FMN 200 uM): 14.1 nM | apparent KD of MS2 coat protein [1]: 10.7 nM | apparent KD of MS2 coat protein (input ligand: none): 16.6 nM

GUAGCAUACCGAGGAUAUUCAUAUACAUGAGGAUCACCCAUGUUAAUAUAGGCCAAAAGGCCUUGGGAGAAGGCGGAAUGCUAC [Xeonanis - 20 Mod11] (Eterna round: R96, puzzle: Same State NG 2)
apparent KD of MS2 coat protein (input ligand: FMN 200 uM): 9.01 nM | apparent KD of MS2 coat protein [1]: 9.83 nM | apparent KD of MS2 coat protein (input ligand: none): 13.3 nM

GUAGCAUACCGAGGAUAUUCAUAUACAUGAGGAUCACCCAUGUUUAUAGGUCGAUUACGACCUUGGGAGAAGGCGGAAUGCUAC [Xeonanis - 20 Mod31] (Eterna round: R96, puzzle: Same State NG 2)
apparent KD of MS2 coat protein (input ligand: FMN 200 uM): 10.8 nM | apparent KD of MS2 coat protein [1]: 9.68 nM | apparent KD of MS2 coat protein (input ligand: none): 13.9 nM

GUAGCAUACCGAGGAUAUUCAUAUAUACAUGAGGAUCACCCAUGUUAAAAUAGGCGAAAGCCUUGGGAGAAGGCGGAAUGCUAC [Xeonanis - 20 Mod67] (Eterna round: R96, puzzle: Same State NG 2)
apparent KD of MS2 coat protein (input ligand: FMN 200 uM): 9.45 nM | apparent KD of MS2 coat protein [1]: 11.4 nM | apparent KD of MS2 coat protein (input ligand: none): 15 nM

GUAGCAUACCGAGGAUAUUCAUAUUAACAUGAGGAUCACCCAUGUUUAGGCCGAUUACGGCCUUGGGAGAAGGCGGAAUGCUAC [Xeonanis - 20 Mod22] (Eterna round: R96, puzzle: Same State NG 2)
apparent KD of MS2 coat protein (input ligand: FMN 200 uM): 10.9 nM | apparent KD of MS2 coat protein [1]: 14.9 nM | apparent KD of MS2 coat protein (input ligand: none): 25.1 nM

GUAGCAUACCGAGGAUAUUCAUAUUACAUGAGGAUCACCCAUGUUAGGCCACAUUAGUGGCCUUGGGAGAAGGCGGAAUGCUAC [Xeonanis - 20 Mod40] (Eterna round: R96, puzzle: Same State NG 2)
apparent KD of MS2 coat protein (input ligand: FMN 200 uM): 14.6 nM | apparent KD of MS2 coat protein [1]: 69.7 nM | apparent KD of MS2 coat protein (input ligand: none): 104 nM

GUAGCAUACCGAGGAUAUUCAUUACAUGAGGAUCACCCAUGUUUUAUAGGCCGAUUACGGCCUUGGGAGAAGGCGGAAUGCUAC [Xeonanis - 20 Mod27] (Eterna round: R96, puzzle: Same State NG 2)
apparent KD of MS2 coat protein [1]: 9.7 nM

GUAGCAUGCACCGAGGAUAUUCAUAUUAAAACAUGAGGAUCACCCAUGUAGGCCAAAAGGCCUUGGGAGAAGGCGGACAUGCUAC [Xeonanis - 21] (puzzle: Same State 2)
apparent KD of MS2 coat protein [2]: 23.5 nM | apparent KD of MS2 coat protein [3]: 178 nM | apparent KD of MS2 coat protein [4]: 422 nM

GUAGCCGGCACUGAGGAUAUUCAUAUUUAAACAUGAGGAUCACCCAUGUAGGCCAGAAGGCCUUGGGAGAAGGCAGGUCGGCUCG [salish99_ss2_r3_081] (puzzle: Same State 2)
apparent KD of MS2 coat protein [2]: 20.7 nM | apparent KD of MS2 coat protein [3]: 210 nM | apparent KD of MS2 coat protein [4]: 294 nM

GUAUAACAUGAGGAUCACCCAUGUCAACAAAGUCGAGGAUAUGGGCAAUUAUAAUUAGAACCAGAAGGCGAAUAGU [Mat - Same State 1 - Mod of UCT - D43] (puzzle: Same State 1)
apparent KD of MS2 coat protein [2]: 30.8 nM | apparent KD of MS2 coat protein [3]: 287 nM | apparent KD of MS2 coat protein [4]: 251 nM

GUAUAACAUGAGGAUCACCCAUGUCAUCUAAGUCGAGGAUAUGGGCAAAUAAUAUAAGAACCAGAAGGCGAAUAUG [Mat - Same State 1 - Mod of UCT - D35] (puzzle: Same State 1)
apparent KD of MS2 coat protein [2]: 61.8 nM | apparent KD of MS2 coat protein [3]: 122 nM | apparent KD of MS2 coat protein [4]: 359 nM

GUAUCUUCAGGUUGCAAUGCUCGUCGGAUACAUGAGGAUCACCCAUGUUAUUAACCUGUGCUUGCGCGGGUAUGAUU [Photon Torp-01] (puzzle: Sensor for hsa-mir-208a)
apparent KD of MS2 coat protein [2]: 21.8 nM | apparent KD of MS2 coat protein [3]: 32.5 nM | apparent KD of MS2 coat protein [4]: 23.3 nM

GUCAACACAAUAGGAUAUUAGACCAUGGAGCCGUACAUGAGGAUCACCCAUGUCUUAGGUUGAUCUAAGAAGGAUUCGUGACGU [Eternabot solution 47] (Eterna round: R96, puzzle: Same State NG 2)
apparent KD of MS2 coat protein (input ligand: FMN 200 uM): 53.4 nM | apparent KD of MS2 coat protein [1]: 59.1 nM | apparent KD of MS2 coat protein (input ligand: none): 86 nM

GUCAGGCAAGCUUUUUUCUCGUAGUGUAAACAUGAGGAUCACCCAUGUGCUCGCCCUGGAUCUUUGGAUCGCGGAAA [Xeatesis] (puzzle: Sensor for hsa-mir-208a)
apparent KD of MS2 coat protein [2]: 34.6 nM | apparent KD of MS2 coat protein [3]: 19.8 nM | apparent KD of MS2 coat protein [4]: 36.5 nM

GUCCAAAACACAGGAUAUCCCAGUCAUGAUCUGGGAGAAGGGUGGCCACAUGAGGAUCACCCAUGUGAAGUGCCAGAGGCACGA [Xexeraed] (Eterna round: R96, puzzle: Same State NG 1)
apparent KD of MS2 coat protein (input ligand: FMN 200 uM): 373 nM | apparent KD of MS2 coat protein [1]: 876 nM | apparent KD of MS2 coat protein (input ligand: none): 1020 nM

GUGCAACCGUGUGAGGAUAUCGGUGGUAAAACAUGAGGAUCACCCAUGUCCGAAGCUCGGAUCUCCGAGAAGGCGCACAGUUGCA [Same State 2 - Mod of Erisin v.2] (puzzle: Same State 2)
apparent KD of MS2 coat protein [2]: 27.8 nM | apparent KD of MS2 coat protein [3]: 290 nM | apparent KD of MS2 coat protein [4]: 470 nM

GUGCUCGUGUGAGGAUAUGCUUCCGUUUCGGCUGCAGAAGGUACUAUUAUACAUGAGGAUCACCCAUGUCCCUUUUCUCCGGUG [salish99_SSNG1_r04_914] (Eterna round: R96, puzzle: Same State NG 1)
apparent KD of MS2 coat protein (input ligand: FMN 200 uM): 18.4 nM | apparent KD of MS2 coat protein [1]: 13.5 nM | apparent KD of MS2 coat protein (input ligand: none): 21.9 nM

GUGGAGGGUUGAGGAUAUUGAAUACAUAUGUUUAACAUGAGGAUCACCCAUGUGGGUUGCGGUAUCGAGAAGGUAGGUUGCUGG [salish99_SSNG2_r04_039] (Eterna round: R96, puzzle: Same State NG 2)
apparent KD of MS2 coat protein (input ligand: FMN 200 uM): 96.7 nM | apparent KD of MS2 coat protein [1]: 45.2 nM | apparent KD of MS2 coat protein (input ligand: none): 84.9 nM

GUGGCACAUGAGGAUCACCCAUGUAGGUAGAACAUAGGAUAUCACCAACAAAAUACCUGGUGAGAAGGAUGAUGCC [Zaesleer] (puzzle: Same State 1)
apparent KD of MS2 coat protein [3]: 143 nM

GUGGCCCAGGCACAGGAUAUGUUUCUCGUAACAUGAGGAUCACCCAUGUGCCUAUGAGAUUUAAUGCAGAAGGGUGCACGCCACA [Mat - Same State 2 - Mod of UCT - D78] (puzzle: Same State 2)
apparent KD of MS2 coat protein [2]: 18.8 nM | apparent KD of MS2 coat protein [3]: 164 nM | apparent KD of MS2 coat protein [4]: 199 nM

GUGGUCAGACAUGAGGAUCACCCAUGUGGAAUAAAUAACGAACAGGAUAUUCAAUAUAGGAUAUAGAAGAAGGGUUGAUUGGUG (Eterna round: R96, puzzle: Same State NG 3)
apparent KD of MS2 coat protein (input ligand: FMN 200 uM): 204 nM | apparent KD of MS2 coat protein [1]: 171 nM | apparent KD of MS2 coat protein (input ligand: none): 187 nM

GUGGUCAGACAUGAGGAUCACCCAUGUGGAAUAAAUAACGUACAGGAUAUGCAAUAUAGGAUAUAGUAGAAGGGUAGAUUGGUG (Eterna round: R96, puzzle: Same State NG 3)
apparent KD of MS2 coat protein (input ligand: FMN 200 uM): 116 nM | apparent KD of MS2 coat protein [1]: 95 nM | apparent KD of MS2 coat protein (input ligand: none): 123 nM

GUGGUCAGACAUGAGGAUCACCCAUGUGGAAUAAAUAACGUCAAGGAUAUAUAAUAUAGGAUAUAAUAGAAGGUGAGAUUGGUG (Eterna round: R96, puzzle: Same State NG 3)
apparent KD of MS2 coat protein (input ligand: FMN 200 uM): 108 nM | apparent KD of MS2 coat protein [1]: 107 nM | apparent KD of MS2 coat protein (input ligand: none): 119 nM

GUGGUCAGACAUGAGGAUCACCCAUGUGGAAUAAAUAAGGAACAGGAUAUGGAAUAUAGGAUAUACCAGAAGGGUUGGUUGGUG (Eterna round: R96, puzzle: Same State NG 3)
apparent KD of MS2 coat protein [1]: 62.3 nM

GUGGUCAGACAUGAGGAUCACCCAUGUGGAAUAAAUAAGGAGAAGGAUAUGGAAUAUAGGAUAUACCAGAAGGUCUGGUUGGUG (Eterna round: R96, puzzle: Same State NG 3)
apparent KD of MS2 coat protein [1]: 55.8 nM

GUGGUCAGACAUGAGGAUCACCCAUGUGGAAUAAAUAAGGAGAAGGAUAUGUAAUAUAGGAUAUAACAGAAGGUUUGGUUGGUG (Eterna round: R96, puzzle: Same State NG 3)
apparent KD of MS2 coat protein (input ligand: FMN 200 uM): 105 nM | apparent KD of MS2 coat protein [1]: 69.7 nM | apparent KD of MS2 coat protein (input ligand: none): 96.5 nM

GUGGUCAGACAUGAGGAUCACCCAUGUGGAAUAAAUAAGGGUCAGGAUAUGAAAUAUAGGAUAUAUCAGAAGGGAUGGUUGGUG (Eterna round: R96, puzzle: Same State NG 3)
apparent KD of MS2 coat protein (input ligand: FMN 200 uM): 101 nM | apparent KD of MS2 coat protein [1]: 81.1 nM | apparent KD of MS2 coat protein (input ligand: none): 90.5 nM
